Laboratory results taken from the nanobody polyreactivity screen of Harvey et al. (2022).

test: yeast display, Sf9 membrane polyspecificity reagent, FACS + sequencing; frameworks hold sequencing errors
Procedure, shortened: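 In a synthetic yeast display library (Saccharomyces cerevisiae BJ5465), nanobody expression was induced with galactose for 36–48 hours. FACS gates were set low and high (top ~1%) using anti-HA fluorescence for expression and streptavidin fluorescence for binding of the Sf9 membrane reagent. Each polyreactivity label is drawn from the gate of origin.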

Row | Sequence | polyreactivity (PSR sort gate)
1 | QVQLVESGGGLVQAGASLRLSCAASGYTLDNYAMGWYRQAPWKERELVAGITFSGGSTFYADSVKGRFTISRDNAKNTVYLQMNRLKPEDTAVYYCAAEAEFQADHKYGYWGQGTQVTVSS | low polyreactivity
2 | QVQLVESGGGLVQAGASLRLSCADSGRISESNDMGWNRQAPGKQRELVAAISSSGGSTYYADSVMGRFPISRDNAKNTVYLQMNSLKPEDTALYYCNAVYYRTVLKIGVYEYDYWGQGTQVTVSS | low polyreactivity
3 | QVQLVESGGGLVQAGASLRLSCAPSGLIFTYNARGWYRQAPGKERELVAAITYRVSSTYYADSVKGRFTISRDNAKNSVYLQMNSLKPEDTAVYYCAAPRLIRFVTYYSWGLGTQVTVSS | high polyreactivity
4 | QVQLVESGGGLVQAGCSLLLICADSGFIFYGYVMGWYRQAPGKEMEWVAGITSSGTSTYADSVKGRFTISRDNAKNTVFLQMNSLKPEDTAAYYCAALRRQYGARDYDYWGQGTQVTVSA | low polyreactivity
5 | QVQLVESGGGLVQAGCSLLLSCAASGRSFTHNAMGWYRPAHGPERELGAAITSRGRTTYADSVKGRFTISRDNAKNTVYVQMNSLKPEDTAVYYCATSVWFPITSYDYWGQGTQVTVSS | low polyreactivity
6 | QVQLVESGGGLVQAGCSLRISCAASGFIFKRNAMGWYRQAPGKERELVAAITWRGGSTYYADSVKGRFTISRDTAKNTVYLQMNSLKPEDTAVYYCAADSYYPRGYRTGWSESAYVSWGQGTLVTVSS | high polyreactivity
7 | QVQLVESGGGLVQAGCSLRISCAASGSTFYINAMGWYRQAPGKERELVAAISRGGSTYYADSVKGRFTISRDNAKNTVYLQMNSLKPEDTAVYYCAADFSRSYRFNYWGQGTQVTVSS | high polyreactivity
8 | QVQLVESGGGLVQAGCSLRLICAASGFIFRTYAMGWYRQAPGKESELVAAISRGGVRTYYADSVKGRFTISRDNAKNTVYLQMNSLKPEDTAVYYCAADDVHGIYDYWGQGTQVTVSS | high polyreactivity
9 | QVQLVESGGGLVQAGCSLRLICAASRSTFTDNAMGWYRQAPGKESELVAAISTGTSTYADSVKGRFTISRDNATNTVYLQMNRLKPEDTAGYYCAADVGIRPLNYHPYNYWGQGTQVTVSS | low polyreactivity
10 | QVQLVESGGGLVQAGCSLRLRCAASGRIYPYYAMGWYRQAPGKERELVAAIRGGGTSTRYADSVKGRFTISRDNAKKTVDLQMNSLKPSDTADYYCAAVWYSGSTRYSKYLEYYYWGQGTQVTVSS | high polyreactivity
11 | QVQLVESGGGLVQAGCSLRLSCAACGFTFIPNAMGWYRQAPAKERELVAAISFGGGSTYYADSVKGRFTISRDNAKNTVYLQMNSMKPEETAVYYCAAEAFVSYEPYWYVRYYSSYNYWGQGTQVTVSS | high polyreactivity
12 | QVQLVESGGGLVQAGCSLRLSCAASGFTFSYYAMGSYRQAPGKERELVASISRSGNTYYADSVKGRFTISRDNAKNTVYLQMNSLKPEDTAVYYCAAKRKSYYSYNFDYWGQGTQVTVSS | high polyreactivity
13 | QVQLVESGGGLVQAGCSLRLSCAASGIIFALNAMGWYRQAPGKERELVAAISDGDSTHYADSVKGRFTISRDNAKNTVYLQMNSLKPEDTAVYYCAVDNRDLFFYPGGFDYWGQGTQVTVSS | low polyreactivity
14 | QVQLVESGGGLVQAGCSLRLSCAASGITFRRYTMGWYRPAPGKERELVATISLSDGNTYYADSVKGRFTISRDNAKNTVYLQMNSLKPEDTAVYYCTADVRYGRDHWGQATQVTVSS | low polyreactivity
15 | QVQLVESGGGLVQAGCSLRLSCAASGLTSTANAMGWYRQAPGKERELVAGITTGGSTYYADSVKGRFTISRDNAKNTVYLQMISLKPEDTAVYYCNAPTYADTTYDYWGQGTQVTVSS | low polyreactivity
16 | QVQLVESGGGLVQAGCSLRLSCAASGNIFYRYAKGRYRPAPGKERELVAGITWSGGSTYYADSVKGRFTISRDNAKNTVYLQMTSLKPEDTAVYYCGQANYYWGQGTQVTVSS | low polyreactivity
17 | QVQLVESGGGLVQAGCSLRLSCAASGRIFDYYAMGWNRQAPGKERELVAAISYSGGSTHYADSVKGRFTISRDNAKNSVYLQMISLKPEDTAVYYCAGWAWSGVEYDYWGQGSQVTVSS | low polyreactivity
18 | QVQLVESGGGLVQAGCSLRLSCAASGRISKRYTMGWYRQAPGKERELVAAINSSTSTSYADSVKGRFTISRDNAKNTVYLKMNSRKPEDTAVYYCNARYNYSYDYNYWGQGTQVTVSS | low polyreactivity
19 | QVQLVESGGGLVQAGCSLRLSCAASGRTFDSYTMGWYRQAPGKERELVAAIRSSGGRTYADSVKGRFTISRDNAKNTVYLQMNSLKPEDTAVYYCDADRRGSHYYRYKYGYWGQGTQVTVSS | high polyreactivity
20 | QVQLVESGGGLVQAGCSLRLSCAASGRTFRYYAMGWYRQAPGKERELVAAISGRGGSTYYADSVKGRFTISRDNAKNTVYFQMNSLKPEDTAVYYCADSFYSIRYDYWGQGTQVTVSS | high polyreactivity
21 | QVQLVESGGGLVQAGCSLRLSCAASGRTFYYYAMGWYRQAPGKERELVAAISKSGGSTYYADSVKGRFTISRDNAKNTVYLQMNSLKPEDTAVYYCAALTTHAPHSYNYWGQGTQVTVSS | low polyreactivity

Row | Sequence | polyreactivity (PSR sort gate)
22 | QVQLVESGGGLVQAGCSLRLSCAASGSIFFSYAMGWYRQAPGKEREFVAAINSDDASTYADSVKGRFTISRDNAKNTVYLQKNSLNPEDTAVYYCAASFLWSWYDYWGQGTHVTVSS | low polyreactivity
23 | QVQLVESGGGLVQAGCSLRLSCAASGSIFGFYAMGWYRQAPGKERELVATIRSSGGNTYYADSVKGRFTISRDNAKNTVYLEMNSLKPEDTGVFYCAASFLIRAYVDRNDYWGLGTQVTVSS | low polyreactivity
24 | QVQLVESGGGLVQAGCSLRLSCAASGSIFSTYAMGWYRQAPGKERELVAAITSDGTYADSVKGRFTISRDNARNTVYLQMNSLKPEDTAVYYWAAYYPYTRHGDYWGQGTQVTVSS | low polyreactivity
25 | QVQLVESGGGLVQAGCSLRLSCAASGSIFTSYAMGWYRQAPGKERELVAAINRSSGTTYYAHSVKGRFTISRDTAKNTVYLQMNSLKREDTAVYYCAKEYGIYTDTPYYYWGQGTQVTVSS | low polyreactivity
26 | QVQLVESGGGLVQAGCSLRLSCAASGSIFYFYGMGWYRQAPGKERELVASITYSGTSTYYADSVKGRFTISRDNAMITVYLQMNSLKPEDTAVYYCAASFYTVNSWYDSWGQGTQVTVSS | low polyreactivity
27 | QVQLVESGGGLVQAGCSLRLSCAASGSIIIGNAMGWYRKSPGKERELVAVINGSDGTTYYADSVKGRFTNSRDNAKNTVYLQMNSLKPEDTAVYYCNADFIDPSVYDYNYWGQGTQVTVSS | low polyreactivity
28 | QVQLVESGGGLVQAGCSLRLSCAASGSISSFYAMGWYRQAPGKERELVAGITSGGSTNYADSVKGRFTISRDNAKNTVYLQMNSLKPEDTAVYYCAAVYKGAGTHFDVFVKEFDYWGLGTQVTVSS | low polyreactivity
29 | QVQLVESGGGLVQAGCSLRLSCAASGSTFKRYAMGWYRQAPGKERELVASISSGGSTNYADSVKGRFTISRDNAKNTVYLQMNSLKPEDTAVYYCATRGHYRQTINYWGQGTQVSVSS | high polyreactivity
30 | QVQLVESGGGLVQAGCSLRLSCAASGSTFSPNAMGWYRQAPGKERELVASIRIGGRTNYADSVKGRFTISRDNAKNTVYLQMNSLKPEDTAVYYCARRHYYSRFTVSKLSRYDYWGQGTQVTVSS | high polyreactivity
31 | QVQLVESGGGLVQAGCSLRLSCAASGSTLYTYAMGWYRQAPGKERELVATISWSGSSTYYADSVKGRFTISRDNAKNTVYLQMNSLKPEDTAVYYCAAQYHYWYRLDYWGQGTQVTVSS | high polyreactivity
32 | QVQLVESGGGLVQAGCSLRLSCAASGSTVYYKAMGWYREAPGKERELVAAITSGGRTKYADSVKGRFTISRDNAKNTVYLQMNSLKPEDTAVYYCNTYNRRSGTLPKPYDYWGQGTQVTVSS | high polyreactivity
33 | QVQLVESGGGLVQAGCSLRLSCAASGYIFYPYAMGWYRQAPGKERELVAAISGSGSGTYYADSVKGRFTISRDNAKNTVYLQMNSLKPEDTADYYCAKYVYDNVWMDYWGQGTQVTVSS | high polyreactivity
34 | QVQLVESGGGLVQAGCSLRLSCASSGLTFSFYAMGWYRQAPGKERELVAAISKGGGSTSYADSVKGRFTISRDNAKNTVYLQMNSLKPEDTAVYYCAARYYYSRSRLYYYWGQVTQVTVSS | high polyreactivity
35 | QVQLVESGGGLVQAGCSLRLSCSASGLTFYANAMGWYRQAPGKERELVAAISKSGGNTYYAYSVKGRFTISRDNAKNTVYLQMNSLKPEDTAVYYCAVGYPRGYVDVDSWGQGTQVTVSS | high polyreactivity
36 | QVQLVESGGGLVQAGDSLRLSCAASGFIFYYYTMGWYRQAPGKEREFVAAITYSGGRTYYADSVKGRFTISRDNAKNTVYLQMNSLKPQDTAVYYCADVPRYGPSSRMDYWGQGTQVTVSS | high polyreactivity
37 | QVQLVESGGGLVQAGGCLRISCAASGSTFPNYAMGWYREAPGKERELVARISYNVGRTYYADSVKGRFTISRDNAKNTVYLQMNSLKPEDTAVYYCAAGVGWRYRVRWYYSLGDYWGQGTQVTVSS | high polyreactivity
38 | QVQLVESGGGLVQAGGCLRLSCAASGSIFDHYVMGWYREAPGKERELVAAISSGDRPNYADSVKGRFTISRDNAKNPVYLQMNSLKPEETAVYYCAAVVHVSPYSYDYWGQGTQVTVSA | low polyreactivity
39 | QVQLVESGGGLVQAGGCLRLSCASSGRTFHLYAMGWYRQAPGKERELVAAITWSSGRTYYSDSVKGRFTISRDNAKNTVYVQMKSLKPEDTAVFYCAADVWGGLLPGYDYWGQGTQVTVSS | high polyreactivity
40 | QVQLVESGGGLVQAGGCLRLSCDASGFTFAFYAMGWYRQAPGKEIELVAAISRRGGSTTYADSVKGRFTISRDNAKNTVYLQMHSLKPEDTAVYYCNAVSTRNPGPDSYYWGQGTQVTVSS | high polyreactivity
41 | QVQLVESGGGLVQAGGGLRLSCAASGFIFSLYAMGWYRQAPGKERELVAAISKRGGSTNYADSLKGRFTISRDNAKNTVYLQRNSLKPDVTAVYYCAATRNYYGRYDYWGQGTQVTVSS | high polyreactivity
